Data on 1 substance can be found in article PMC6479064.

Assay [1] deals with C. reinhardtii axonemal tubulin purified from the combined cyc1-cyc5 fractions (CP/B tubulin) (C. reinhardtii). Kind of assay: dynamic microtubule assay by IRM with mean-squared displacement (MSD) analysis; MT ends tracked with FIESTA; quadratic fit to the first 15 s of MSD against time; estimated rate constants of tubulin dimer binding and unbinding at the growing end.
For assay [2] the target is unchanged. Kind of assay: dynamic microtubule assay by interference reflection microscopy (IRM); label-free; tubulin at different concentrations in BRB80 with oxygen scavengers, 0.1 mg/ml casein, 1 mM dithiothreitol and 1 mM GTP, 28 °C; extensions grown from TAMRA-labeled GMPCPP-stabilized bovine brain MT seeds held on the coverslip by anti-TAMRA antibodies; constants from linear regression of growth rate against tubulin concentration; tubulin dimer onto the microtubule end.

Turning to “C. reinhardtii axonemal tubulin purified from the combined cyc1-cyc5 fractions (CP/B tubulin) (complex)”, in assay [1], the koff, minus end (MSD analysis) was 228 s⁻¹; the koff, plus end (MSD analysis) was 341 s⁻¹; the kon, minus end (MSD analysis) is 2.6e+07 M⁻¹ s⁻¹; the kon, plus end (MSD analysis) was 3.86e+07 M⁻¹ s⁻¹. For the same substance, in assay [1], the kon[Tub], minus end (MSD analysis) is 234 s⁻¹ and the kon[Tub], plus end (MSD analysis) is 348 s⁻¹. Further, in assay [2], the koff, minus end was determined as 1.16 s⁻¹; the koff, plus end is 0.785 s⁻¹; the kon, minus end stood at 430000 M⁻¹ s⁻¹; the kon, plus end amounted to 540000 M⁻¹ s⁻¹. In assay [2], the x-intercept (extrapolated tubulin concentration for growth), minus end was 2.58 µM and the x-intercept (extrapolated tubulin concentration for growth), plus end was 1.35 µM.
